This note sets out measurements from the supplement of paper PMC12764529.

Series [1] in a line: folding stability dG unfold from chymotrypsin proteolysis; higher = more stable. Here is the method: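 Folding stability of de novo designed mini-proteins (<80 aa, no Cys; designed by TrROS, TrMRF, ProteinMPNN and the joint model) was measured by cDNA display proteolysis with trypsin and chymotrypsin. Each protease was used at 11 concentrations in a threefold dilution series plus a no-protease condition. K50 was inferred by Bayesian fitting of sequencing counts, and dG unfold was derived against a sequence-predicted unfolded-state K50 (Tsuboyama et al. method). Sequences shown include variable-length N-terminal GS-type padding (SAGGSAGG...) inside a display construct carrying a PA tag. Rows were kept only if the AF2 dimer inter-PAE was >15, to exclude likely homo-oligomers.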

Series [2] in a line: folding stability dG unfold (combined trypsin and chymotrypsin); higher = more stable. In short, it runs like this:
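How resistant each design was to proteolysis was captured as K50, inferred by Bayesian fitting of sequencing counts. Unfolding free energy was then derived relative to a sequence-predicted unfolded-state K50 and a shared folded-state K50, per protease or combined. Digestion used trypsin and chymotrypsin at 11 threefold-diluted concentrations plus a no-protease condition, on mini-proteins under 80 residues without cysteine in a PA-tagged cDNA display construct. Designs were kept only when AlphaFold2 dimer inter-PAE was above 15.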

± gives the half width of the 95% confidence interval. Some results are limits rather than exact numbers.

On to “SAGGSAGGSAGGSMETVEVTEVSFDPSKGTRFVKTTVTRKDEKGNWVEKEEWITEPVLGSAGGSAGGSAGGS [r4_85_JUSTAS]”, for which the entries for the “folding stability dG unfold” value in series [1] and in series [2] were 0.338 ± 0.059 kcal/mol and -0.0805 ± 0.12 kcal/mol, respectively.
“SAGGSAGGSAGGSMKTEEVVYVKTPDAWVRLKKEEAEKLEKETGVKIERESFTLPAGALESAGGSAGGSAGG [r7_185_JUSTAS]”: the “folding stability dG unfold” value came to 0.89 ± 0.17 kcal/mol in series [1] and 0.405 ± 0.24 kcal/mol in series [2].
Turning to “SAGGSAGGSAGGSMKTITFTDPAEIAAAIEEAEKEGVEEVVLLTPEGKTRVIPKGVPLPSAGGSAGGSAGGS [r4_260_JUSTAS]”, the “folding stability dG unfold” value in series [1] was 0.516 ± 0.083 kcal/mol; in series [2], -0.00846 ± 0.37 kcal/mol.
Regarding “SAGGSAGGSAGGSMKTTTLTVKPEELEEVKKKLTPPDKTVTIKSVTKDPKEDLVTLTVESAGGSAGGSAGGS [r10_1030_JUSTAS]”, the “folding stability dG unfold” value in series [1] was -0.517 ± 0.59 kcal/mol; in series [2] it was -0.923 ± 0.65 kcal/mol.
For “SAGGSAGGSAGGSMVYRVVLEPESGERVEFEVTYDEAEELLEKLPPNARLRIEPVPEDASAGGSAGGSAGGS [r4_63_TrMRF]” the same measures were 0.265 ± 0.13 kcal/mol and -0.0741 ± 0.17 kcal/mol.
For “SAGGSAGGSAGGSSSMTSEKVTEKTEFDKETGKKYKIITQRISPSSVGNSSLKTEIKLESAGGSAGGSAGGS [r10_535_JUSTAS]”, in that order: -0.0486 ± 0.25 kcal/mol and -0.735 ± 0.61 kcal/mol.
On to “SAGGSAGGSAGGSSVVIVADSAEEAKAALKELGIKDAKVVPLKPVKVFTDEQLKELKKKSAGGSAGGSAGGS [r4_101_TrROS_Hall]”, for which the “folding stability dG unfold” value is 0.943 ± 0.039 kcal/mol in series [1] and 0.276 ± 0.28 kcal/mol in series [2].
As to “SAGGSAGGSAGGSVEIRDARIELGDNTLRIEISFPDGGTRRIEIEVEPVPPLPPSLLDRSAGGSAGGSAGGS [r4_372_TrMRF]”, the entries for the “folding stability dG unfold” value in series [1] and in series [2] were 0.109 ± 0.11 kcal/mol and below -1 kcal/mol, respectively.
For “SAGGSAGGSAGGSWMRMEAEVRHPNKRDVTIPIPYRSKDGEPDMKERAKEFARELAKDYSAGGSAGGSAGGS [r4_168_TrROS]” the same measures were -0.315 ± 0.21 kcal/mol and below -1 kcal/mol.
With “SAGGSAGGSAGGTVKELMKKLPFGAQIEIDEIEHDKGRIEIPIRVENMPPEWREKLRKLSAGGSAGGSAGGS [r10_733_TrROS]”, the “folding stability dG unfold” value in series [1] is 0.0365 ± 0.15 kcal/mol; in series [2], -0.305 ± 0.23 kcal/mol.
Take “SAGGSAGGSAGGVAEWIQEQGFKVKDIPVPRPPNGNPWVKVEVEHDGGKRTYEIPLDEISAGGSAGGSAGGS [r10_35_TrROS]”: the “folding stability dG unfold” value in series [1] was 0.487 ± 0.12 kcal/mol; in series [2], 0.0288 ± 0.14 kcal/mol.
Turning to “SAGGSAGGSAGGVRPNPNGQYEVTVTIRNPGGGNKREKTINATPDEIEELQDQGFEIEPSAGGSAGGSAGGS [r10_749_TrROS]”, the “folding stability dG unfold” value in series [1] was -1.08 ± 0.35 kcal/mol; in series [2], below -1 kcal/mol.
For “SAGGSAGGSAGGVYKVEIEIGDAPRTLVVENAAPEEIRAFLEHPEVRRARVEPLSPEELGSAGGSAGGSAGG [r7_502_TrMRF]”, the figures for the “folding stability dG unfold” value in series [1] and in series [2] were 0.216 ± 0.12 kcal/mol and -0.152 ± 0.11 kcal/mol, respectively.
For the sequence “SAGGSAGGSAGGYDPNDKPVVEVPIELPPNDKKNPDRMKENAEEIANPLQEKGKPDRIVSAGGSAGGSAGGS [r10_723_TrROS]”, the “folding stability dG unfold” value in series [1] worked out at 0.907 ± 0.11 kcal/mol; in series [2], 0.475 ± 0.24 kcal/mol.
Consider “SAGGSAGGSAGIKIYAPGFPGMPVEIERDPDEPNVIKIKIKGPDNGEPQERTFPADDLEISAGGSAGGSAGG [r17_341_TrROS]”, for which the “folding stability dG unfold” value was 0.526 ± 0.074 kcal/mol in series [1] and -0.169 ± 0.28 kcal/mol in series [2].
For the sequence “SAGGSAGGSAGIKKQRNPDGQERETIEIRTKNQPIPITFPPDDNADDLANNFGLPADDIRSAGGSAGGSAGG [r11_1039_TrROS]”, the “folding stability dG unfold” value in series [1] was 0.682 ± 0.039 kcal/mol; in series [2], 0.28 ± 0.079 kcal/mol.
As for “SAGGSAGGSAGKLKVEIEERNGKLVLKVKLELEPEPEPVEVEKKVEVKTETKMSLEELKKSAGGSAGGSAGG [r17_51_TrROS_Hall]”, the “folding stability dG unfold” value in series [1] amounted to 0.952 ± 0.058 kcal/mol; in series [2], 0.471 ± 0.096 kcal/mol.
Turning to “SAGGSAGGSAGMEMKLRPEPVVEVTPTVTTEPDPSLGTTVTTTTYTFDNGEVKTETDTGGSAGGSAGGSAGG [r11_463_JUSTAS]”, the “folding stability dG unfold” value in series [1] was 0.0371 ± 0.25 kcal/mol; in series [2] it was -0.441 ± 0.28 kcal/mol.
In the case of “SAGGSAGGSAGMKVFIFKDPEKAIEAIKEFAGKNGVKYKIIEIETTPDGYVKIKVEFEPISAGGSAGGSAGG [r11_304_TrMRF]”, the figures for the “folding stability dG unfold” value in series [1] and in series [2] were 5.31 ± 0.22 kcal/mol and 5.48 ± 0.25 kcal/mol, respectively.
Consider “SAGGSAGGSAGMKYIEEAKAKAKPDKKLKITIPPSLPVEEVRKELLEEVPIDDVEFIKNLSAGGSAGGSAGG [r11_524_JUSTAS]”, for which the “folding stability dG unfold” value in series [1] was -0.491 ± 0.26 kcal/mol; in series [2], below -1 kcal/mol.
For the sequence “SAGGSAGGSAGMLNTTVTVSIPTPEGKVETITIPPGVPLEEAKAKVAEPRPGAEITEIVRVSAGGSAGGSAG [r3_60_JUSTAS]”, the “folding stability dG unfold” value in series [1] was 0.764 ± 0.044 kcal/mol; in series [2], 0.165 ± 0.21 kcal/mol.
Turning to “SAGGSAGGSAGMRLLVEKPEGPVPTVTEVEVPLPEGDKARLEEVKEELKKKGYKKVIFLDSAGGSAGGSAGG [r11_196_JUSTAS]”, the figures for the “folding stability dG unfold” value in series [1] and in series [2] were -0.417 ± 0.37 kcal/mol and below -1 kcal/mol, respectively.
On to “SAGGSAGGSAGMTITVYPSDGTVLTRDMSLSEIPELLKKHPELVLESIEEGEGLAKFKVKSAGGSAGGSAGG [r17_22_JUSTAS]”, for which the “folding stability dG unfold” value in series [1] is -1.05 ± 0.81 kcal/mol; in series [2], below -1 kcal/mol.
Turning to “SAGGSAGGSAGMTSTVTEVRPGSDSWTVTVTYSENSSTKTQTLTVPAGPTVRSGLPSVVSSAGGSAGGSAGG [r11_921_JUSTAS]”, the “folding stability dG unfold” value in series [1] was 0.209 ± 0.15 kcal/mol; in series [2], -0.435 ± 0.23 kcal/mol.
In the case of “SAGGSAGGSAGMVVETEVLETTPPGRTVRTRTTTREKTPDNAPVTTESESVTEVPSPPLESAGGSAGGSAGG [r11_689_JUSTAS]”, the “folding stability dG unfold” value was found to be 0.615 ± 0.026 kcal/mol in series [1] and 0.273 ± 0.081 kcal/mol in series [2].
As for “SAGGSAGGSAGPKSIPLDNATVTEFDSPNGDKVFIFSHPNKKKRLAILKDGKLVKEIPIESAGGSAGGSAGG [r11_1038_TrMRF]”, the “folding stability dG unfold” value in series [1] is 0.0908 ± 0.31 kcal/mol; in series [2], -0.26 ± 0.3 kcal/mol.
As to “SAGGSAGGSAGPTITYHPDGRVRIDLHLPNGELLDTGVITPDEAVRLLLETGVRLRTIRPSAGGSAGGSAGG [r11_521_TrMRF]”, the “folding stability dG unfold” value came to 0.662 ± 0.11 kcal/mol in series [1] and 0.166 ± 0.19 kcal/mol in series [2].
Regarding “SAGGSAGGSAGPVIRIPDATVTTDPATGTLTVTTAGRTVTVPPGATVTVLPDGTVVVERPSAGGSAGGSAGG [r17_34_JUSTAS]”, the results for the “folding stability dG unfold” value in series [1] and in series [2] were 0.759 ± 0.035 kcal/mol and -0.0514 ± 0.067 kcal/mol, respectively.
As to “SAGGSAGGSAGRTIMIPPNQTAEEAVNHLKEELPPGNKNVTINYWDGDGEWEKFEIEVKKSAGGSAGGSAGG [r17_215_TrROS]”, the “folding stability dG unfold” value in series [1] was -0.616 ± 0.44 kcal/mol; in series [2], below -1 kcal/mol.
In the case of “SAGGSAGGSAGSAPAGALVTEEVSLEETETFFDPTTKKPLRTVRVTVPVKRERVVSPALPSAGGSAGGSAGG [r11_970_JUSTAS]”, the “folding stability dG unfold” value in series [1] was -0.795 ± 0.69 kcal/mol; in series [2], below -1 kcal/mol.
For the sequence “SAGGSAGGSAGSEVEKARNAALEARRAGVEEVTITMPEELKEKVTALAKEEGINLKIESESAGGSAGGSAGG [r11_371_JUSTAS]”, the “folding stability dG unfold” value in series [1] was 0.0457 ± 0.19 kcal/mol; in series [2], -0.351 ± 0.36 kcal/mol.
Regarding “SAGGSAGGSAGSMPVTVTERVVTSETPLPTDELAVKTTVTYPDGTAADFTRLLPPDAPLESAGGSAGGSAGG [r11_429_JUSTAS]”, the entries for the “folding stability dG unfold” value in series [1] and in series [2] were 0.875 ± 0.042 kcal/mol and 0.158 ± 0.18 kcal/mol, respectively.
